Test results from PMC10551896, “Methylation of the transcription factor E2F1 by SETD6 regulates SETD6 expression via a positive feedback mechanism” (The Journal of Biological Chemistry, 2023).

Target: T1, recombinant glutathione-S-transferase (GST)-tagged SETD6 (UniProt Q8TBK2 1-473)
T1 construct: SET domain-containing protein 6 (SETD6), a 53 kDa protein lysine methyltransferase; also called GST-SETD6; GST SETD6
T1 sequence (looked up): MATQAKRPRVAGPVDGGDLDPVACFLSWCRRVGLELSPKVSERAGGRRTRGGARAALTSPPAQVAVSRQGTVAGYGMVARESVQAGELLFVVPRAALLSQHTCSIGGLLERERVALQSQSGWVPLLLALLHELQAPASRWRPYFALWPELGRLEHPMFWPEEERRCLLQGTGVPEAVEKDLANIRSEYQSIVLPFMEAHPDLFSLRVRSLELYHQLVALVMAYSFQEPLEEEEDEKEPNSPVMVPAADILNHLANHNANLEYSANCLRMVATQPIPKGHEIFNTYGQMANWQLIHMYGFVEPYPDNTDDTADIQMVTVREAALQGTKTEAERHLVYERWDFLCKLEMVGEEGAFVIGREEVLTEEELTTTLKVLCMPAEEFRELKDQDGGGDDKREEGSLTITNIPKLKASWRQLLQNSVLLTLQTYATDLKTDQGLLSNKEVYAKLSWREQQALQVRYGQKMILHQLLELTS
Assay: ELISA; His-SUMO-E2F1 (2 ug) in PBS immobilised on a 96-well plate, 1 h room temperature, blocked with 3% BSA; 0.5 ug GST-SETD6 in 1% BSA in PBS and Tween-20 for 1 h at room temperature; detected with anti-GST and HRP-conjugated secondary antibody, absorbance at 450 nm
Settings: both partners purified

binding result: binds
B1: recombinant His-SUMO-E2F1 (natural protein)
chain: not shown
notes: the same insert was cloned into pET-SUMO and pGEX-6p1; also called His-SUMO-E2F1 WT; source: E. coli Rosetta, purified (nickel-nitrilotriacetic acid beads or HisTrap column)
